In one experiment the target is T1, rat FcRn on Rat-2 cells (rat, UniProt P13599 23-366; P07151 21-119).
T1 construct: whole, on cells
T1 sequence (looked up): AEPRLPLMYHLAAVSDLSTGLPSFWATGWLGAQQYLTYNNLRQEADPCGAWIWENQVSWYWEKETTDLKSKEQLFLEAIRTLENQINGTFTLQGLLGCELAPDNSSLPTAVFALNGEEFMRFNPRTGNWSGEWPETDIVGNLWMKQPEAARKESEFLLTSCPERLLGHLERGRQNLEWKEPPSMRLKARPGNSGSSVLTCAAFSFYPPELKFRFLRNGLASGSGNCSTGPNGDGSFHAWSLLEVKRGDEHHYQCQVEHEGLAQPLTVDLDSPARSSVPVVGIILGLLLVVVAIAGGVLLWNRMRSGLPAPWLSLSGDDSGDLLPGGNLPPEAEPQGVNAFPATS
T1 sequence (b2m, looked up): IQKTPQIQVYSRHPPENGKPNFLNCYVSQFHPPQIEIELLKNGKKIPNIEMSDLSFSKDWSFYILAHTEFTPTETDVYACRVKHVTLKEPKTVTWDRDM
Briefly: FACS on rat FcRn-expressing Rat-2 cells at pH 6.0 and pH 7.4, FITC anti-human IgG goat antibody; MFI relative to hIgG. The method, then: Rat-2 (KCTC #AC28203), rat fibroblasts stably expressing rat FcRn, were cultured in 10% FBS DMEM medium, and then detached from the culture plate by trypsin treatment. The cells were washed three times with cold binding buffer (PBS pH 6.0, 10 mM EDTA), and then diluted in binding buffer at a concentration of 10⁵ cells/ml. 100 μl of the cell dilution was dispensed into each 1.5-ml tube in such a manner that each tube contained 10⁴ cells, and 1 μl of HL161 antibody (1 mg/ml) was added to the dispensed cells. Next, the cells were incubated on ice. As control antibodies, 1 μl of each of mouse 1G3 antibody and human IgG antibody (Abcam, cat#. 409120), which bind to rat FcRn, was used. The 1G3 antibody was produced and purified from mouse hybridoma cells (ATCC CRL2434). The cells were recovered by centrifugation at 4° C. and 4000 rpm for 5 minutes, after which the cells were washed once with binding buffer and resuspended in 100 μl of binding buffer. As FITC-conjugated secondary antibody, 1 μl of anti-human IgG goat antibody (Invitrogen, cat#. A11013) was added to the cells. In the case of the experiment using anti-rat FcRn mouse antibody, the anti-mouse IgG goat antibody (Invitrogen, cat#. A11001) was incubated with the cells on ice for 1 hour, and then the cells were recovered by centrifugation at 4° C. and 4000 rpm for 5 minutes, washed once with binding buffer, resuspended in 400 μl of binding buffer and analyzed by FACS to examine the cross-reactivity of the HL161 antibodies with rat FcRn (see FIG. 4). An experiment at a pH of 7.4 was performed using binding buffer at a pH of 7.4 in the same manner as the experiment using binding buffer at a pH of 6.0. The degree of the binding of each antibody to rat FcRn was presented as relative MFI based on human IgG.

Experiment [1] concerns the target T2, mouse FcRn on 3T3-L1 cells (mouse, UniProt Q61559 22-365; P01887 21-119).
T2 construct: whole, on cells; also called NIH3T3L1
T2 sequence (looked up): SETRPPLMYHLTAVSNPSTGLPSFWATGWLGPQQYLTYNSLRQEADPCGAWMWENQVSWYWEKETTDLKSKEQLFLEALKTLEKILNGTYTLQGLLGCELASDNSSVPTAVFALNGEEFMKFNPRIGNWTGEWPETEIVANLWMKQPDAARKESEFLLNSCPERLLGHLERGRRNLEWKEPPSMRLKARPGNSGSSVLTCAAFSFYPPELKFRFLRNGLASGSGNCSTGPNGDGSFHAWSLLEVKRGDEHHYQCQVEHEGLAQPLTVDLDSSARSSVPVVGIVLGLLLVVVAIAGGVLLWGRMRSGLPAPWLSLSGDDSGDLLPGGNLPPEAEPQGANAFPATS
T2 sequence (b2m, looked up): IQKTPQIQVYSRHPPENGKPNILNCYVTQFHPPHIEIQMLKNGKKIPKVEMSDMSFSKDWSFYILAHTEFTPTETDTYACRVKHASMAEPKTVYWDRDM
Briefly: FACS on mouse FcRn-expressing 3T3-L1 cells at pH 6.0 and pH 7.4, FITC anti-human IgG goat antibody; MFI relative to hIgG. The method, then: 3T3-L1 cells stably expressing mouse FcRn were cultured in 10% FCS DMEM medium, and then detached from the culture plate by trypsin treatment. The cells were washed three times with cold binding buffer (PBS, pH 6.0 10 mM EDTA), and then diluted in binding buffer at a concentration of 10⁵ cells/ml. 100 μl of the cell dilution was dispensed into each 1.5-ml tube in such a manner that each tube contained 10⁴ cells, and 1 μl of HL161 antibody (1 mg/ml) was added to the dispensed cells. Next, the cells were incubated on ice. As control antibodies, 1 μl of each of rabbit antibody (Santacruz, sc-66893) and human IgG (Abcam, cat#. 409120), which bind to mouse FcRn, was used. The cells were recovered by centrifugation at 4° C. and 4000 rpm for 5 minutes, after which the cells were washed once with binding buffer and resuspended in 100 μl of binding buffer. As FITC-conjugated secondary antibody, 1 μl of anti-human IgG goat antibody (Invitrogen, Cat*. A11013) was added to the cells. In the case of the experiment using anti-mouse FcRn rabbit antibody, the anti-rabbit antibody was incubated with the cells on ice for 1 hour, and then the cells were recovered by centrifugation at 4° C. and 700 g for 5 minutes, washed once with binding buffer, resuspended in 400 ul of binding buffer and analyzed by FACS to examine the cross-reactivity of the HL161 antibodies with mouse FcRn (see FIG. 4). An experiment at a pH of 7.4 was performed using binding buffer at a pH of 7.4 in the same manner as the experiment using binding buffer at a pH of 6.0. The degree of the binding of each antibody to mouse FcRn was presented as relative MFI based on human IgG.

Another experiment concerns the target T3, soluble human FcRn (human, UniProt P55899 24-297; P61769 21-119).
T3 construct: extracellular domain;mature; Non-covalent heterodimer secreted by 293 cells, purified on IgG Sepharose; also called shFcRn; soluble FcRn
Briefly: SPR, shFcRn immobilised, pH 7.4. The method, then:
Measurement of the binding ability of antibody by SPR was performed by immobilizing shFcRn as a ligand onto a Proteon GLC chip (Bio-Rad) and measuring affinity.
The analysis of ligand and analyte was performed using a Proteon GLC chip, and the interaction was analyzed at a pH of 6.0 and a pH of 7.4. Immobilization of the ligand was activated by injecting a 1:1 mixture of 1×EDAC (EDC) and 1× Surfo-NHS for 5 minutes. shFcRn was diluted in 10 mM sodium acetate (pH 4.5) at a concentration of 25 μg/ml and added to the ligand at a flow rate of 30 μl/min for 5 minutes. […] The analyte antibody was allowed to flow on the immobilized chip at a flow rate of 30 μl/min. […] The association time of the analyte antibody was 240 seconds, and the dissociation time was 600 seconds. Regeneration of the chip was performed by injecting 10 mM glycine (pH 2.5) at a flow rate of 100 μl/min for 18 seconds. Based on sensorgrams resulting from six concentrations of the analyte, kinetics analysis was performed using Proteon XPR36 software.
(In SPR one partner is held on a chip, and binding of the other changes the refractive index at the surface.)

Among the data in patent publication US20160137713A1 (HANALL BIOPHARMA, published 2016) are binding result and kon values, retold here.

One may read the kon as the rate constant with which the complex forms.

Changes are numbered by the printed parent chain.

T3 sequence (P55899 24-297, chain 1 of 2): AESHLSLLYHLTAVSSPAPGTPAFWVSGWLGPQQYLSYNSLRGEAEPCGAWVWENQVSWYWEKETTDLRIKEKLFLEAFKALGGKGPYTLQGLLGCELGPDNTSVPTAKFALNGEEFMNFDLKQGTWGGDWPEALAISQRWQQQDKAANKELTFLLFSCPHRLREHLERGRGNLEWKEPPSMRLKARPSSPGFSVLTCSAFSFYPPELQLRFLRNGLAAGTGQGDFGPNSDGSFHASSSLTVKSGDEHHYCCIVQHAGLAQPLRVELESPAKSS
T3 sequence (P61769 21-119, chain 2 of 2): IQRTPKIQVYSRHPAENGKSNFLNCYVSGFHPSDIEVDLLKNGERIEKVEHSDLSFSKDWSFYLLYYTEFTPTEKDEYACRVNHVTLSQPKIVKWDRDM

B1: HL161-1A (antibody, V domains shown)
VH: QVQLVQSGGGLVQPGRSLRLSCAASGFSFGEYGMHWVRQAPGKGLEWVSGVSWNSGSIAYADSVRGRFTISRDNSKNSLYLQMNSLRAEDTAVYYCARGRSMDVWGQGTTVTVSS
VL: NFMLTQPASVSGSPGQTITISCTGSSSDVGGYNYVSWYQQHPGKAPQLIIYDVTKRPSGVSNRFSGSKSGNSASLTISGLQAEDEADYYCSSYSSSTFYVFGTGTKVTVL
notes: Whole human IgG from pNATAB vectors
With B1, the binding result (with rat FcRn on Rat-2 cells; in experiment [1]) was “binds” in each case.

B2: HL161-11G (antibody, V domains shown)
VH: QMQLVESGGGVVQPGRSLRLSCVGSGFNFNSYGIHWVRQAPGKGLEWVGGIFYDGSQVKYADSVKGRVSISRDNSKNTAYLQMNSLRAEDTAVYYCARRNLLDYWGQGTVVTVSS
VL: B1 VL with T17S
notes: Whole human IgG from pNATAB vectors; also called h1161-11G
With B2, the binding result (with rat FcRn on Rat-2 cells; in experiment [1]) was “binds” throughout.

B3: HL161-10E (antibody, V domains shown)
VH: QVQLVESGGGLVQPGGSLRLSCAASGFRFSNFAMTWVRQAPGKGLEWVSTLSGSGGSIHHADSVKGRFTISRDNSKNTLYLQMNSLRAEDTAVYYCAKGPLRGQPAYLDPWGQGTLVTVSS
VL: SYELTQPLSVSMSPGQTARITCSGDALSKQYASWYQLKPGQAPVVVMYKDTERPSGIPDRFSGSSSGTTVTLTISGVQAEDEADYYCQSITDKSGTDVIFGGGTKLTVL
notes: as for B1
On to B3, for which the on-rate constant (kon) in the experiment with soluble human FcRn was 310000 M⁻¹ s⁻¹.
